Here are results for 20 molecules from patent US20220098304A1 (JIANGSU HENGRUI MEDICINE, published 2022).

Experiment [1] has as its target T1, Human PD-1-His protein (Cat. #10377H08H, Sino Biological) (human, UniProt Q15116 25-167).
T1 construct: Bought protein; also called hPD-1-His; hu PD-1-his; not shown: His tag of the bought protein
Put plainly: SPR (Biacore), antibody captured on Protein A chip, PD-1 in flow. The text has this: IgG was affinity captured by using a Protein A biosensor chip (Cat. #29127556, GE). Human PD-1 antigen (Cat. #10377H08H, Sino Biological) and Cyno PD-1 antigen (purchased from Sino Biological) flowed across the surface of the chip, and the binding and dissociation curves were obtained by real time detection of PD-1 antibody and antigen PD-1 reaction signals by a Biacore T200 instrument. After the dissociation of each experimental cycle was completed, the biosensor chip was washed and regenerated with 10 mM Glycine-HCl pH 1.5 buffer. The experimental buffer system was 1×HBS-EP buffer solution (Cat #BR-1001-88, GE). After the experiment, GE Biacore T200 Evaluation version 3.0 software was used to fit the data with a (1:1) Langmuir model, and the affinity value was obtained.
(In general: Surface plasmon resonance follows binding to a sensor surface in real time, without labels.)

The target of experiment [2] is T1, Human PD-1-His protein (Cat. …). Kind of experiment: ELISA, PD-1-His coated, HRP anti-human IgG detection.
The target of experiment [3] is T2, Human PD-1-IgG1Fc fusion protein (human).
T2 construct: also called PD-1-Fc; Hu PD-1-Fc
Kind of experiment: competition ELISA, PD-1-Fc coated, competitor biotin-labeled PD-L2. As to the method:
(§1) CB buffer pH 9.6 (1.59 g Na₂CO₃ and 2.93 g NaHCO₃ dissolved in 1 L distilled water) was used to dilute PD-1-Fc to 1 μg/ml, which was added to the 96-well plates at a volume of 100 μl/well and allowed to stand at 4° C. for 16 h-20 h. PBS buffer was aspirated from the 96-well plates, and the plates were washed with PBST (pH 7.4 PBS containing 0.05% tween20) buffer once. 120 μl/well PB ST/1% milk was added and incubated at room temperature for 1 h for blocking. The blocking solution was removed and the plates were washed with PBST buffer once. 90 μl anti-PD-1 antibody to be tested diluted to appropriate concentration with the sample diluent (pH 7.4 PBS containing 5% BSA, 0.05% Tween20) was added and pre-incubated at 4° C. for 1 h. […] The reaction system was removed and the plates were washed with PBST 6 times. 100 μl/well Streptavidin-Peroxidase Polymer 1:400 diluted with PBST buffer was added and incubated with shaking at room temperature for 50 min. The plates were washed with PBST 6 times. 100 μl/well TMB was added and incubated at room temperature for 5-10 min. 100 μl/well 1 M H₂SO₄ was added to stop the reaction.
On the technique in general: ELISA stands for enzyme-linked immunosorbent assay.

For experiment [4], the target named is T2, Human PD-1-IgG1Fc fusion protein. Kind of experiment: competition ELISA, PD-1-Fc coated, competitor biotin-labeled PD-L1. The method, then: as §1

What is called Kd is the free concentration of one partner at which half of the binding sites on the other are occupied at equilibrium, for simple one-to-one binding. Usually koff stands for the rate constant with which the complex falls apart. A high value points to fast dissociation. What is called kon is the second-order rate constant of association. Usually EC50 stands for the concentration that produces a half-maximal response. Read a low EC50 as a more potent agent. One may read the IC50 as the concentration needed to halve the response being measured. Higher therefore signals weaker potency in that assay.

Substitutions are numbered along the chain they refer to. Names and notes keep the numbering of the source.

B1: Hu23-7.IgG4AA (antibody)
heavy: not shown
light: DGVMTQTPLSLPVTPGEPASISCRSSQSLVHSNGNTYLEWYLQKPGQSPQLLIYKVSNRFSGVPDRFSGSGSGTDFTLKISRVEAEDVGVYYCFQGSHVPYTFGGGTKVEIKRTVAAPSVFIFPPSDEQLKSGTASVVCLLNNFYPREAKVQWKVDNALQSGNSQESVTEQDSKDSTYSLSSTLTLSKADYEKHKVYACEVTHQGLSSPVTKSFNRGEC
notes: Full-length IgG4-AA, kappa
As to B1, in experiment [1], the equilibrium dissociation constant (Kd) was 5.97 nM, the koff turned out to be 0.000166 s⁻¹ and the kon is 27700 M⁻¹ s⁻¹.

B2: Hu23-12.IgG4AA (antibody, V domains shown)
VH: EVQLVQSGAEVKKPGSSVKVSCKASGGTFSDYEMHWVRQAPGQGLEWMGLIDPETGGTVYNQKFKDRVTITADKSTSTAYMELSSLRSEDTAVYYCARERFSYYGSTSDWYFDVWGQGTTVTVSS
VL: DIVMTQTPLSLPVTPGEPASISCRSSQSLVHSDGNTYLEWYLQKPGQSPQLLIYKVSNRFSGVPDRFSGSGSGTDFTLKISRVEAEDVGVYYCFQGSHVPYTFGGGTKVEIKR
notes: Full-length IgG4-AA, kappa; also called Hu23LCDR1 (N28D)
Take B2: in experiment [1], the Kd stood at 2.02 nM, the koff was 0.00011 s⁻¹ and the kon amounted to 54500 M⁻¹ s⁻¹.

B3: Hu23-9.IgG4AA (antibody, V domains shown)
VH: B2 VH
VL: B2 VL with D33Q
notes: Full-length IgG4-AA, kappa; also called Hu23LCDR1 (N28Q)
In experiment [1], B3 showed a Kd of 2.15 nM, a koff of 0.000132 s⁻¹ and a kon of 61600 M⁻¹ s⁻¹.

B4: Hu23-13.IgG4AA (antibody, V domains shown)
VH: B2 VH
VL: B2 VL with D33N, G34A
notes: Full-length IgG4-AA, kappa; also called Hu23LCDR1 (G29A)
In experiment [1], B4 registered a Kd of 2.88 nM, a koff of 0.000122 s⁻¹ and a kon of 42400 M⁻¹ s⁻¹.

B5: Hu23-10.IgG4AA (antibody, V domains shown)
VH: B2 VH
VL: B2 VL with D33L
notes: Full-length IgG4-AA, kappa; also called Hu23LCDR1 (N28L)
In the case of B5, in experiment [1], the dissociation constant (Kd) was 2.77 nM, the koff is 0.000153 s⁻¹ and the kon is 55100 M⁻¹ s⁻¹.

B6: Hu23-8.IgG4AA (antibody)
heavy: not shown
light: B1 light
notes: Full-length IgG4-AA, kappa
In experiment [1], B6 had a Kd of 3.56 nM, a koff of 0.000147 s⁻¹ and a kon of 41100 M⁻¹ s⁻¹.

B7: Hu23-14.IgG4AA (antibody, V domains shown)
VH: B2 VH
VL: B2 VL with D33N, G34V
notes: Full-length IgG4-AA, kappa; also called Hu23LCDR1 (G29V)
In the case of B7, in experiment [1], the Kd was 2.22 nM, the off-rate constant (koff) amounted to 0.000161 s⁻¹ and the kon was 72300 M⁻¹ s⁻¹.

B8: Hu33-1.IgG4AA (antibody, V domains shown)
VH: EVQLVESGGGLVQPGGSLRLSCAASGFTFSSYAMSWVRQAPGKGLEWVATISGGGVDTYYQDNVQGRFTISRDNAKNSLYLQMNSLRAEDTAVYYCARPYGHGYFDVWGQGTTVTVSS
VL: DIQMTQSPSSLSASVGDRVTITCRASQDINNFLNWYQQKPGKAPKLLIYYTSSLHSGVPSRFSGSGSGTDFTLTISSLQPEDFATYYCQQGNTLPWTFGGGTKVEIKR
notes: Full-length IgG4-AA, kappa
In experiment [1], B8 registered a Kd of 19.3 nM, a koff of 0.00128 s⁻¹ and a kon of 66100 M⁻¹ s⁻¹.

B9: Hu33-8.IgG4AA (antibody)
heavy: not shown
light: DIQMTQSPSSLSASVGDRVTITCRASQDINNFLNWYQQKPGGAVKLLIYYTSSLHSGVPSRFSGSGSGTDYTLTISSLQPEDFATYYCQQGNTLPWTFGGGTKVEIKRTVAAPSVFIFPPSDEQLKSGTASVVCLLNNFYPREAKVQWKVDNALQSGNSQESVTEQDSKDSTYSLSSTLTLSKADYEKHKVYACEVTHQGLSSPVTKSFNRGEC
notes: Full-length IgG4-AA, kappa
In experiment [1], B9 showed a dissociation constant (Kd) of 1.06 nM, a koff of 0.000162 s⁻¹ and a kon of 153000 M⁻¹ s⁻¹.

B10: Hu33-9.IgG4AA (antibody)
heavy: not shown
light: B9 light
notes: Full-length IgG4-AA, kappa
In experiment [1], B10 yielded a Kd of 1.09 nM, a koff of 0.000153 s⁻¹ and a kon of 140000 M⁻¹ s⁻¹.

B11: Hu33-7.IgG4AA (antibody, V domains shown)
VH: B8 VH
VL: B8 VL with K42G, P44V, F71Y
notes: Full-length IgG4-AA, kappa
Regarding B11, in experiment [1], the affinity, expressed as Kd, was 33.8 nM; the koff amounted to 0.0026 s⁻¹; the kon amounted to 76900 M⁻¹ s⁻¹.

B12: Hu33-4.IgG4AA (antibody, V domains shown)
VH: B8 VH
VL: B8 VL with F71Y
notes: Full-length IgG4-AA, kappa
In the case of B12, in experiment [1], the affinity, expressed as Kd, was 31.4 nM; the off-rate (koff) was found to be 0.00255 s⁻¹; the kon was determined as 81100 M⁻¹ s⁻¹.

B13: Hu32a-29.IgG4AA (antibody, V domains shown)
VH: EVQLVQSGAEVKKPGSSVKVSCKASGFTFSDYEIHWVRQAPGQGLEWMGLFDPETGGIVYNQKFKGRVTLTADKSTSTAYMELSSLRSEDTAVYYCTREGYNRDWYFDVWGQGTTVTVSS
VL: B2 VL with D33T
notes: Full-length IgG4-AA, kappa
For the molecule B13, in experiment [1], binding was put at a Kd of 7.86 nM, the koff was 0.00062 s⁻¹ and the kon was 78900 M⁻¹ s⁻¹.

B14: Hu32a-43.IgG4AA (antibody, V domains shown)
VH: B13 VH with G26D
VL: B2 VL with D33T
notes: Full-length IgG4-AA, kappa
With B14, in experiment [1], the Kd came out at 8.16 nM, the koff came out at 0.000685 s⁻¹ and the kon came to 83900 M⁻¹ s⁻¹.

B15: Hu32a-57.IgG4AA (antibody, V domains shown)
VH: B13 VH with M48I, V68A, L83F
VL: B2 VL with D33T
notes: Full-length IgG4-AA, kappa
In experiment [1], B15 registered a Kd of 7.85 nM, a koff of 0.000624 s⁻¹ and a kon of 79400 M⁻¹ s⁻¹.

B16: Hu32a-15.IgG4AA (antibody, V domains shown)
VH: B13 VH with F27G, L70I, T97A
VL: B2 VL with D33T
notes: Full-length IgG4-AA, kappa
Consider B16, for which, in experiment [1], the Kd is 51.4 nM, the dissociation rate constant (koff) was 0.00252 s⁻¹ and the association rate constant (kon) is 48900 M⁻¹ s⁻¹.

B17: Hu32a-71.IgG4AA (antibody, V domains shown)
VH: B13 VH with G26D, S30T, M48I, V68A, L83F
VL: B2 VL with D33T
notes: Full-length IgG4-AA, kappa
Turning to B17, in experiment [1], the affinity, expressed as Kd, was 4.61 nM; the koff was 0.000396 s⁻¹; the kon came to 86000 M⁻¹ s⁻¹.

B18: H005-1 (positive control anti-PD-1 antibody, see H005-1 antibody in WO2015085847) (antibody, V domains shown)
VH: EVQLVESGGGLVQPGGSLRLSCAASGFTFSSYMMSWVRQAPGKGLEWVATISGGGANTYYPDSVKGRFTISRDNAKNSLYLQMNSLRAEDTAVYYCARQLYYFDYWGQGTTVTVSS
VL: DIQMTQSPSSLSASVGDRVTITCLASQTIGTWLTWYQQKPGKAPKLLIYTATSLADGVPSRFSGSGSGTDFTLTISSLQPEDFATYYCQQVYSIPWTFGGGTKVEIKR
For B18, in experiment [2], the EC50 amounted to 0.113 µg/mL and the “OD value MAX” value stood at 1.21 OD. This molecule also yielded an IC50 in experiment [3] of 0.225 µg/mL. The half-inhibitory concentration (IC50) in experiment [4] worked out at 0.11 µg/mL.

B19: murine antibody M33 (antibody, V domains shown)
VH: KVMLVESGGGLVKPGGSLKLSCAASGFTFSSYAMSWVRQTPEKRLEWVATISGGGVDTYYQDNVQGRFTISRDNAKNTLYLQMSSLRSEDTALYYCASPYGHGYFDVWGTGTTVTVSS
VL: DIQMTQTTSSLSASLGDRVTISCRASQDINNFLNWYQQKPDGTVKLLIYYTSSLHSGVPSRFSGSGSGTDYSLTISNLEQEDIATYFCQQGNTLPWTFGGGTKLEIK
In the case of B19, in experiment [1], binding was characterised by a dissociation constant (Kd) of 0.737 nM, the koff is 0.000227 s⁻¹ and the kon came to 308000 M⁻¹ s⁻¹.

B20: murine antibody M32 (antibody, V domains shown)
VH: QVQLQQSGAELVRPGASVTLSCKASDFTFTDYEIHWVKQTPVHGLEWIGLFDPETGGIVYNQKFKGKAILTADKSSNTAYMEFRSLTSEDSAVYYCTREGYNRDWYFDVWGTGTTVTVSS
VL: DVLMTQTPLSLPVSLGDQASISCRSSQSIVHSNGNTYLEWYLQKPGQSPKLLIYKVSNRFSGVPDRFSGSGSGTDFTLKISRVEAEDLGIYYCFQGSHVPYAFGGGTKLEIK
In experiment [1], B20 displayed a Kd of 5.3 nM, a koff of 0.000415 s⁻¹ and a kon of 78300 M⁻¹ s⁻¹.
